Experimental findings from patent US20040052799A1, “Nucleic acid and amino acid sequences relating to Helicobacter pylori for diagnostics and therapeutics” (Astra Aktiebolag, priority 1996, published 2004) are described below.

Assay [1] has as its target T1, H. pylori KDO-8-P synthase (Helicobacter pylori, UniProt Q9ZN55).
T1 construct: histidine tag; made in house
The assay is described as follows: Long term storage stability of KDO-8-P synthase. The protocol: The long term storage stability of the enzyme was tested over several conditions. […] Enzyme stored in 50% glycerol appeared to have less activity during extended storage at −20° C. (FIG. 9).

In assay [2] the target is T1, H. pylori KDO-8-P synthase. The assay is described as follows: KDO-8-P synthase Assay 1, PEP utilization at 232 nm. The format is biochemical. As to conditions: room temperature, 0.3 mM Ara5P, 0.3 mM PEP, pH 7.5. As for the experimental part:
The enzyme reaction was performed in a final volume of […] containing 0.3 mM Ara5P, 0.3 mM PEP and 0.1 M Tris-acetate pH 7.5. Reactions were started with […] of purified enzyme and were followed spectrophotometrically at 232 nm for 15 minutes. As a control, the mixture minus enzyme was measured. No decrease in the absorbance at 232 nm was observed when no enzyme was added. […] An extinction coefficient of 2840 M cm^−1 of PEP, was used to estimate that at room temperature, the activity of the enzyme was 0.7-mole/min/mg protein.

Assay [3] deals with T1, H. pylori KDO-8-P synthase. The experiment in a line: KDO-8-P synthase Assay 2, Pi release, molybdate-malachite green. The format is biochemical. Further details: unit not given here. As to conditions: 25° C., 0.3 mM Ara5P, 0.3 mM PEP, 1.28 ug/ml enzyme. As for the experimental part: Because of the potential interference of test compounds on the assay at 232 nm, a method was developed to measure the amount of Pi released in the reaction (Lanzatta et al. 1979).
This assay ws performed in a 96 well ELISA place, 50 ul assay mixtures containing 0,1 M Tris-acetate (pH 7.5), 0.3 mM Ara5P and 0.3 mM PEP, and 1.28 ug/ml of KDO-8-P synthase were incubated at 25° C. for different times. The reaction was then quenched with the addition of the molybdate-malachite green reagent. […] Under those conditions, the activity measured was 0.734-moles/min/mg protein, which was similar to the rate that was measured with the 232 nm assay.
When assayed in the presence of 0.02% Brij 35, the reaction proceeded faster. Under those conditions, the activity increased up to 1 mole/min mg protein.

B1: KDO-8-P synthase: recombinant H. pylori KDO-8-P synthase, histidine-tagged fusion protein (SEQ ID NO: 6945) (protein, listed as Helicobacter pylori)
chain: MKTSNTKTPKPVLIAGPCVIESLENLRSIAIKLQPLANNERLDFYFKASFDKANRTSLESYRGPGLEKGLEMLQTIKDEFGYKILTDVHESYQASVAAKVADILQIPAFLCRQTDLIVEVSQTNAIVNIKKGQFMNPKDMQYSVLKALKTRDSSIQSPTYETALKNGVWLCERGSSFGYGNLVVDMRSLKIMREFAPVIFDATHSVQMPGGANGKSSGDSSFPPILPRAAAAVGIDGLFAETHIDPKNALSDGANMLKPDELEHLVTDMLKIQNLF
modifications: His tag; misc_feature (B) LOCATION 1...276; hypothetical: YES
Turning to B1, the activity after storage entry in assay [1] (50 mM phosphate pH 8.0 and 1 mM PEP, −20° C., at least three weeks) was “no loss of activity”; in assay [1] (50% glycerol, extended storage at −20° C., FIG. 9), “less activity”. In addition, in assay [2], the “activity of the enzyme” value is 0.7 mole/min/mg protein. This molecule yielded an activity measured in assay [3] of 0.734.
